Where “and” joins values, the source holds several entries; their conditions need not be identical. Identical values can stand only once.

Data set [1] concerns the target calpain-cleaved ~150 kDa N-terminal fragment of native RyR1 from rabbit skeletal muscle SR (rabbit (endogenous in skeletal muscle SR)). In words: cross-linking; rabbit skeletal muscle SR pre-treated with 10 mM DTT, cleaved with calpain-2, centrifuged; resuspended SR pellet incubated with 0.0025% glutaraldehyde; SDS/PAGE (4% gels), Western blot with Ab2142.
For data set [2] the target is unchanged. In words: cross-linking; rabbit skeletal muscle SR pre-treated with 10 mM DTT, cleaved with calpain-2, centrifuged; supernatant (liberated N-terminal fragment only) incubated with 0.0025% glutaraldehyde; SDS/PAGE (4% gels), Western blot with Ab2142. A general note: A western blot detects proteins with antibodies after separation by electrophoresis.
The target of data set [3] is IP3R1 N-terminal domain (residues 1–667, human IP3R1/SI− co-ordinates), c-Myc- or HA-tagged, in HEK-293 cells (human). In words: cross-linking; HEK-293 cell homogenates expressing c-Myc-tagged IP3R1 1-667 constructs, pre-treated with 10 mM DTT, without or with 1 or 10 μM IP3, incubated with glutaraldehyde for the indicated times; SDS/PAGE (6% gels), anti-c-Myc Western blot.

Data set [4] addresses IP3R1^(1–667, K493A), IP3 binding-deficient mutant, c-Myc-tagged, in HEK-293 cells (human). The description is as above.
Data set [5] deals with the molecule itself. In words: cross-linking; HEK-293 cell homogenates expressing c-Myc-tagged BT4LR1 or BT4LR3, pre-treated without or with 10 mM DTT, incubated with glutaraldehyde for the indicated times; SDS/PAGE (6% gels), anti-c-Myc Western blot.
Data set [6] concerns the molecule itself. In words: not stated; unpublished work (M. Seidel and S. Zissimopoulos).

“calpain-cleaved ~150 kDa N-terminal fragment of native RyR1 from rabbit skeletal muscle SR (domain or fragment)”: the stoichiometry N in data set [1] is 2 and 3 and 4; in data set [2] it was 2 and 3 and 4.
On to “IP3R1 N-terminal domain (residues 1–667, human IP3R1/SI− co-ordinates), c-Myc- or HA-tagged, in HEK-293 cells (domain or fragment)”, for which the stoichiometry N in data set [3] turned out to be 4.
Regarding “IP3R1^(1–667, K493A), IP3 binding-deficient mutant, c-Myc-tagged, in HEK-293 cells (domain or fragment)”, in data set [4], the stoichiometry N worked out at 4.

B1: c-Myc-tagged RyR1 N-terminal fragment (residues 1–915), BT4LR1, in HEK-293 cells (domain or fragment, rabbit, UniProt P11716 1-915, looked up)
chain: MGDGGEGEDEVQFLRTDDEVVLQCSATVLKEQLKLCLAAEGFGNRLCFLEPTSNAQNVPPDLAICCFTLEQSLSVRALQEMLANTVEAGVESSQGGGHRTLLYGHAILLRHAHSRMYLSCLTTSRSMTDKLAFDVGLQEDATGEACWWTMHPASKQRSEGEKVRVGDDLILVSVSSERYLHLSTASGELQVDASFMQTLWNMNPICSCCEEGYVTGGHVLRLFHGHMDECLTISAADSDDQRRLVYYEGGAVCTHARSLWRLEPLRISWSGSHLRWGQPLRIRHVTTGRYLALTEDQGLVVVDACKAHTKATSFCFRVSKEKLDTAPKRDVEGMGPPEIKYGESLCFVQHVASGLWLTYAAPDPKALRLGVLKKKAILHQEGHMDDALFLTRCQQEESQAARMIHSTAGLYNQFIKGLDSFSGKPRGSGPPAGPALPIEAVILSLQDLIGYFEPPSEELQHEEKQSKLRSLRNRQSLFQEEGMLSLVLNCIDRLNVYTTAAHFAEYAGEEAAESWKEIVNLLYELLASLIRGNRANCALFSTNLDWVVSKLDRLEASSGILEVLYCVLIESPEVLNIIQENHIKSIISLLDKHGRNHKVLDVLCSLCVCNGVAVRSNQDLITENLLPGRELLLQTNLINYVTSIRPNIFVGRAEGSTQYGKWYFEVMVDEVVPFLTAQATHLRVGWALTEGYSPYPGGGEGWGGNGVGDDLYSYGFDGLHLWTGHVARPVTSPGQHLLAPEDVVSCCLDLSVPSISFRINGCPVQGVFEAFNLDGLFFPVVSFSAGVKVRFLLGGRHGEFKFLPPPGYAPCHEAVLPRERLRLEPIKEYRREGPRGPHLVGPSRCLSHTDFVPCPVDTVQIVLPPHLERIREKLAENIHELWALTRIEQGWTYGPVRDDNKRLHPCLVNFHSLPE
notes: ryanodine receptor 1 (RyR1), rabbit, residues 1-915; also called c-Myc–BT4LR1
Turning to B1, the “stoichiometry N” value in data set [5] stood at 4.

B2: truncated RyR2 N-terminal fragment (residues 1–654), of the unpublished observation (domain or fragment, human, UniProt Q92736 1-654, looked up)
chain: MADGGEGEDEIQFLRTDDEVVLQCTATIHKEQQKLCLAAEGFGNRLCFLESTSNSKNVPPDLSICTFVLEQSLSVRALQEMLANTVEKSEGQVDVEKWKFMMKTAQGGGHRTLLYGHAILLRHSYSGMYLCCLSTSRSSTDKLAFDVGLQEDTTGEACWWTIHPASKQRSEGEKVRVGDDLILVSVSSERYLHLSYGNGSLHVDAAFQQTLWSVAPISSGSEAAQGYLIGGDVLRLLHGHMDECLTVPSGEHGEEQRRTVHYEGGAVSVHARSLWRLETLRVAWSGSHIRWGQPFRLRHVTTGKYLSLMEDKNLLLMDKEKADVKSTAFTFRSSKEKLDVGVRKEVDGMGTSEIKYGDSVCYIQHVDTGLWLTYQSVDVKSVRMGSIQRKAIMHHEGHMDDGISLSRSQHEESRTARVIRSTVFLFNRFIRGLDALSKKAKASTVDLPIESVSLSLQDLIGYFHPPDEHLEHEDKQNRLRALKNRQNLFQEEGMINLVLECIDRLHVYSSAAHFADVAGREAGESWKSILNSLYELLAALIRGNRKNCAQFSGSLDWLISRLERLEASSGILEVLHCVLVESPEALNIIKEGHIKSIISLLDKHGRNHKVLDVLCSLCVCHGVAVRSNQHLICDNLLPGRDLLLQTRLVNHVSS
notes: may be the same construct as m10
With B2, the “stoichiometry N” value in data set [6] worked out at 4.

B3: c-Myc-tagged RyR3 N-terminal fragment (residues 1–911), BT4LR3, in HEK-293 cells (domain or fragment, rabbit, UniProt Q9TS33 1-911, looked up)
chain: MAEGGEGGEDEIQFLRTEDEVVLQCIATVHKEQRKFCLAAEGLGNRLCFLEPTSEAKFIPPDLCVCNFVLEQSLSVRALQEMLANTGENGGEGAAQGGGHRTLLYGHAILLRHSFSGMYLTCLTTSRSQTDKLAFDVGLREHATGEACWWTIHPASKQRSEGEKVRIGDDLILVSVSSERYLHLSISNGNIQVDASFMQTLWNVHPTCSGSSIEEGYLLGGHVVRLFHGHDECLTIPSTDQNDSQHRRIFYEAGGAGTRARSLWRVEPLRISWSGSNIRWGQAFRLRHLTTGHYLALTEDQGLLLQDRGKADTKSTAFSFRPSKETKEKLDSSHKRDIEGMGVPEIKYGDSVCFVQHIASGLWVTYKAQDAKTSRLGPLKRKVILHQEGHMDDGLTLQRCQREESQAARIIRNTTALFSQFVSGNNRTAAPVTLPIEEVLQTLHDLIAYFQPPEEEMQHEDKQNKLRSLKNRQNLFKEEGMLALVLNCIDRLNIYNSVAHFAGIAREESGMAWKEVLSLLYKLLAALIRGNRNTCAQFSNNLDWLISKLDRLESSSGILEVLHCILIESPEALNLIAEGHIKSIISLLDKHGRNHKVLDVLCSLCLCNGVAVRANQNLICDNLLPRRNLLLQTRLINDVTSIRPNIFLGVAEGSAQYKKWYFELIIDQVDPFLTAEPTHLRVGWASSSGYAPYPGGGEGWGGNGVGDDLYSYGFDGLHLWSGRIPRAVASINQHLLKSDDVVSCCLDLGVPSISFRINGQPVQGMFENFNTDGLFFPVMSFSAGVKVRFLMGGRHGEFKFLPPSGYAPCYEALLPKEKMRLEPVKEYKRDAEGVRDLLGTTQFLSQASFIPCPIDTSQVVLPPHLEKIRDRLAENIHELWGMNKIELGWTFGKMRDDNKRQHPCLVEFSKL
notes: ryanodine receptor 3 (RyR3), rabbit, residues 1-911; also called c-Myc–BT4LR3
In the case of B3, the “stoichiometry N” value in data set [5] came out at 4.

The term stoichiometry N denotes the number of molecules, sites or subunits per partner or assembly.
